# Reference: the RNAGym collection of RNA variant scans (doi:10.7554/elife.90254)
# B1: LINE1-mini (parent)
# chain: GGCAGAGCUCAACACAGCGUGGCAAAGUGGCUGUGGCUAGACUGCC
# Variants of: B1
# Test: self-cleavage, relative activity (ratio to wild type); higher = more cleavage; in vitro, sequencing; the parent is a self-cleaving ribozyme
row,Variant,self-cleavage
1,A11C G33U,0.04
2,A11C G33C,0.02
3,A11C U32C,0.04
4,A11C U32A,0.04
5,A11C U32G,0.03
6,A11G A16U,0.03
7,A11G A16G,0.02
8,A11G A16C,0.02
9,A11G C46A,0.04
10,A11G C46G,0.02
11,A11G C46U,0.02
12,A11G C18G,0.02
13,A11G C18A,0.04
14,A11G C18U,0.04
15,A11C G44A,0.06
16,A11C G44U,0.03
17,A11C C23A,0.07
18,A11C C23U,0.05
19,A11C C23G,0.06
20,A11C G22U,0.07
21,A11C G22A,0.12

row,Variant,self-cleavage
1,A11C G22C,0.04
2,A11C C15A,0.02
3,A11C C15G,0.02
4,A11C C15U,0.03
5,A11C U43A,0.01
6,A11C U43C,0.02
7,A11C U43G,0.03
8,A11C G36C,0.03
9,A11C G36U,0.01
10,A11C G36A,0.04
11,A11G A39U,0.05
12,A11G A39G,0.03
13,A11G A39C,0.04
14,A11C G30C,0.04
15,A11C G30U,0.05
16,A11C G30A,0.08
17,A11C A41G,0.03
18,A11C A41C,0.01
19,A11C A41U,0.04
20,A11C U28C,0.03
21,A11C U28G,0.05

row,Variant,self-cleavage
1,A11C U28A,0.06
2,A11G C13A,0.04
3,A11G C13U,0.03
4,A11G C13G,0.02
5,A11C C37U,0.02
6,A11C C37G,0.01
7,A11C C37A,0.02
8,A11G C23G,0.03
9,A11G C23U,0.02
10,A11G C23A,0.04
11,A11C C31G,0.01
12,A11C C31A,0.02
13,A11C C31U,0.03
14,A11G C15G,0.03
15,A11G C15U,0.03
16,A11G C15A,0.02
17,A11G G30A,0.04
18,A11G G30C,0.04
19,A11C A39G,0.03
20,A11C A39U,0.03
21,A11C A39C,0.02

row,Variant,self-cleavage
1,A11G A26G,0.04
2,A11G A26U,0.02
3,A11G A26C,0.03
4,A11C C42A,0.02
5,A11C C42U,0.02
6,A11C C42G,0.03
7,A11G G19A,0.04
8,A11G G19C,0.03
9,A11G G19U,0.02
10,A11C G19U,0.04
11,A11C G19C,0.08
12,A11C G19A,0.05
13,A11G G27A,0.02
14,A11G G27U,0.03
15,A11G G27C,0.03
16,A11C G27U,0.05
17,A11C G27C,0.04
18,A11C G27A,0.11
19,A11C A25U,0.09
20,A11C A25C,0.09
21,A11C A25G,0.08
